# Source: paper PMC9482650, “Quantitative fragmentomics allow affinity mapping of interactomes” (Nature Communications, 2022)
# Substitutions are numbered along the chain they refer to.
# T1: TIAM2, Q8IVF5
# T1 sequence (Q8IVF5 885-986, limits assumed, looked up): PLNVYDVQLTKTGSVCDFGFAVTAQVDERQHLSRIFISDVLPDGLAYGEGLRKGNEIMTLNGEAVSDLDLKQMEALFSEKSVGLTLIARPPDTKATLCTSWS
# T2: PTPN13_1, Q12923
# T2 sequence (Q12923 1088-1188, limits assumed, looked up): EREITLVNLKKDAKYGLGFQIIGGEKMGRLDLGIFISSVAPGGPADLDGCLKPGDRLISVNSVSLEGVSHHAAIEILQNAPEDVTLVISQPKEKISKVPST
# T3: FRMPD1, Q5SYB0
# T3 sequence (Q5SYB0 52-145, limits assumed, looked up): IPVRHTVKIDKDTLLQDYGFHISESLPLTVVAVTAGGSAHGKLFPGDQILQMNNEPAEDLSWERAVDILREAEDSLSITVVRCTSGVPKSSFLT
# T4: LIN7A, O14910
# T4 sequence (O14910 103-200, limits assumed, looked up): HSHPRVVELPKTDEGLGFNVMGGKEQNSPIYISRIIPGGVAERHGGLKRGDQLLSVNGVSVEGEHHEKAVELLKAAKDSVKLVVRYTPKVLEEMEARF
# T5: GRIP1_4, Q9Y3R0
# T5 sequence (Q9Y3R0 467-571, limits assumed, looked up): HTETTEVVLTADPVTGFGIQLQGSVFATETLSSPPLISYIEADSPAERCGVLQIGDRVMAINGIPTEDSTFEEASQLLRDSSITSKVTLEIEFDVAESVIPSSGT
# T6: GRIP1_7, Q9Y3R0
# T6 sequence (Q9Y3R0 999-1096, limits assumed, looked up): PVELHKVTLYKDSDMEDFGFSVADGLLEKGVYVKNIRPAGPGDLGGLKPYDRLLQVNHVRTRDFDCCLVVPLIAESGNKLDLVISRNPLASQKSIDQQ
# T7: APBA2_2, Q99767
# T7 sequence (Q99767 654-744, limits assumed, looked up): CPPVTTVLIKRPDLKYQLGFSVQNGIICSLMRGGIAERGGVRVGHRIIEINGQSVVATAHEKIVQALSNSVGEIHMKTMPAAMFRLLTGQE
# T8: PDZD7_3, Q9H5P4
# T8 sequence (Q9H5P4 857-944, limits assumed, looked up): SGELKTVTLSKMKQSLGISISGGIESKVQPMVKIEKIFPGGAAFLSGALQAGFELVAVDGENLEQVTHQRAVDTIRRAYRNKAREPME
# T9: LIN7B, Q9HAP6
# T9 sequence (Q9HAP6 88-185, limits assumed, looked up): T4 sequence (O14910 103-200, limits assumed, looked up) with S2A, V20I, I35V, E42D, H65Q, K77Q, D78G, K89R
# T10: PCLO, Q9Y6V0
# T10 sequence (Q9Y6V0 4491-4600, limits assumed, looked up): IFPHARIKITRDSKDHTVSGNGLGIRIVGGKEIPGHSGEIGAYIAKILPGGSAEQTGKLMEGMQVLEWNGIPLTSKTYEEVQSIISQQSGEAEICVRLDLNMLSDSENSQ
# Experiments:
# Test in all cases: holdup assay
# Set-up in all cases: key: below the threshold = too weak to quantify, mostly under pKd 3.1 to 4
# Details in all cases: plain residues with an end cap or a label only (N-terminal biotin on a linker: ado-ado)
# TIAM2, Q8IVF5 = target: T1, TIAM2, Q8IVF5
# PDZRN4_1, Q6ZMN7 = target: PDZRN4_1, Q6ZMN7
# Chain of PDZRN4_1, Q6ZMN7 (Q6ZMN7 213-318): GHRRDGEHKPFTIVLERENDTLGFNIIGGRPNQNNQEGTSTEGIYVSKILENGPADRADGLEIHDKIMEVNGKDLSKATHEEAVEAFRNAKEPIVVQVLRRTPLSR
# PTPN13_1, Q12923 = target: T2, PTPN13_1, Q12923
# FRMPD1, Q5SYB0 = target: T3, FRMPD1, Q5SYB0
# MAGI2_3, Q86UL8 = target: MAGI2_3, Q86UL8
# Chain of MAGI2_3, Q86UL8 (Q86UL8 600-682): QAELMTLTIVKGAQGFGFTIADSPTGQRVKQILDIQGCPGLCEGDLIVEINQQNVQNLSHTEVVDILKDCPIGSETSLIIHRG
# TJP1_2, Q07157 = target: TJP1_2, Q07157
# Chain of TJP1_2, Q07157 (Q07157 181-274): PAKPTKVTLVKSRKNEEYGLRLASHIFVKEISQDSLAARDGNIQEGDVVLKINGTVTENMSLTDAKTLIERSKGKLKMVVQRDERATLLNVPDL
# IL16_1, Q14005 = target: IL16_1, Q14005
# Chain of IL16_1, Q14005 (Q14005 210-306): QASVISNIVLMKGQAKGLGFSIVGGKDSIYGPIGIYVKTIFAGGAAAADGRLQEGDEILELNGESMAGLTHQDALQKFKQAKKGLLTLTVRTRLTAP
# LIN7A, O14910 = target: T4, LIN7A, O14910
# GRIP1_4, Q9Y3R0 = target: T5, GRIP1_4, Q9Y3R0
# GRIP1_7, Q9Y3R0 = target: T6, GRIP1_7, Q9Y3R0
# MAST1, Q9Y2H9 = target: MAST1, Q9Y2H9
# Chain of MAST1, Q9Y2H9 (Q9Y2H9 962-1065): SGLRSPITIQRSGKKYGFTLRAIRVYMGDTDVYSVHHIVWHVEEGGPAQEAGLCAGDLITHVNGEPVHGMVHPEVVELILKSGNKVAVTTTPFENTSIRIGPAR
# FRMPD4, Q14CM0 = target: FRMPD4, Q14CM0
# Chain of FRMPD4, Q14CM0 (Q14CM0 67-160): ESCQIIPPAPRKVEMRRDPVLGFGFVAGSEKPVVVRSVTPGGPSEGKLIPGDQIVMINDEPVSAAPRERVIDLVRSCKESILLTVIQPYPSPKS
# Inadl_5, Q8NI35 = target: Inadl_5, Q8NI35
# Chain of Inadl_5, Q8NI35 (Q8NI35 673-780): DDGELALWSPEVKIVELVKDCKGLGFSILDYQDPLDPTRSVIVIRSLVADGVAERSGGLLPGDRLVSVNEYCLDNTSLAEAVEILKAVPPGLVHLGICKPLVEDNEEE
# LNX1_1, Q8TBB1 = target: LNX1_1, Q8TBB1
# Chain of LNX1_1, Q8TBB1 (Q8TBB1 261-371): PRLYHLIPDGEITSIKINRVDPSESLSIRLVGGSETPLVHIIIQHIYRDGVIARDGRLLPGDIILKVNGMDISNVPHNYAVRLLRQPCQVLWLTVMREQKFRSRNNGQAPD
# LNX1_3, Q8TBB1 = target: LNX1_3, Q8TBB1
# Chain of LNX1_3, Q8TBB1 (Q8TBB1 500-596): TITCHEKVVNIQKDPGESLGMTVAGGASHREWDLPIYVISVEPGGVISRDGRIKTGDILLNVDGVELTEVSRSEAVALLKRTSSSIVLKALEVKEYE
# FRMPD3, Q5JV73 = target: FRMPD3, Q5JV73
# Chain of FRMPD3, Q5JV73 (Q5JV73 12-100): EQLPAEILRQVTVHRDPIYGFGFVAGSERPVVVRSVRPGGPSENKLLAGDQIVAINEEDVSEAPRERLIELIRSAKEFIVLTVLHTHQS
# APBA2_2, Q99767 = target: T7, APBA2_2, Q99767
# MAGI2_6, Q86UL8 = target: MAGI2_6, Q86UL8
# Chain of MAGI2_6, Q86UL8 (Q86UL8 1141-1229): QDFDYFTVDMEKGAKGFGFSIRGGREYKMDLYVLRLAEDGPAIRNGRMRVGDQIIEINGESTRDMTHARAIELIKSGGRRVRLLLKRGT
# DLG4_2, P78352 = target: DLG4_2, P78352
# Chain of DLG4_2, P78352 (P78352 155-259): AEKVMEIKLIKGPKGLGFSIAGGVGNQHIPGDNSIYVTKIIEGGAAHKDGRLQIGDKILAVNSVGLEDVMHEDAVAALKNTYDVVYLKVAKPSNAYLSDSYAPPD
# SCRIB_1, Q14160 = target: SCRIB_1, Q14160
# Chain of SCRIB_1, Q14160 (Q14160 718-814): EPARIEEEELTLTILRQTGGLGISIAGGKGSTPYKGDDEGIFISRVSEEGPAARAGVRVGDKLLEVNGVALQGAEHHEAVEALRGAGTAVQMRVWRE
# PDZD7_3, Q9H5P4 = target: T8, PDZD7_3, Q9H5P4
# LIN7B, Q9HAP6 = target: T9, LIN7B, Q9HAP6
# PCLO, Q9Y6V0 = target: T10, PCLO, Q9Y6V0
# MAGI2_4, Q86UL8 = target: MAGI2_4, Q86UL8
# Chain of MAGI2_4, Q86UL8 (Q86UL8 772-865): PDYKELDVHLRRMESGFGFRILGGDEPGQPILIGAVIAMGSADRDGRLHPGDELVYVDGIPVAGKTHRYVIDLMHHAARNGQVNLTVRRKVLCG
# DLG2_3, Q15700 = target: DLG2_3, Q15700
# GRID2IP_2, A4D2P6 = target: GRID2IP_2, A4D2P6
# Chain of GRID2IP_2, A4D2P6 (A4D2P6 272-370): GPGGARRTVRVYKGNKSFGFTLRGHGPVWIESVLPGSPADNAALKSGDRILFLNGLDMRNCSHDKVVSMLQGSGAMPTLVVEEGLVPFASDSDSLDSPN
# GRID2IP_1, A4D2P6 = target: GRID2IP_1, A4D2P6
# Chain of GRID2IP_1, A4D2P6 (A4D2P6 1-87): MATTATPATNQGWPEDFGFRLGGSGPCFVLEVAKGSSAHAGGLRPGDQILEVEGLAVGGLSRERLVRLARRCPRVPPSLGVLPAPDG
"pKd (TIAM2, Q8IVF5)","pKd (PDZRN4_1, Q6ZMN7)","pKd (PTPN13_1, Q12923)","pKd (FRMPD1, Q5SYB0)","pKd (MAGI2_3, Q86UL8)","pKd (TJP1_2, Q07157)","pKd (IL16_1, Q14005)","pKd (LIN7A, O14910)","pKd (GRIP1_4, Q9Y3R0)","pKd (GRIP1_7, Q9Y3R0)","pKd (MAST1, Q9Y2H9)","pKd (FRMPD4, Q14CM0)","pKd (Inadl_5, Q8NI35)","pKd (LNX1_1, Q8TBB1)","pKd (LNX1_3, Q8TBB1)","pKd (FRMPD3, Q5JV73)","pKd (APBA2_2, Q99767)","pKd (MAGI2_6, Q86UL8)","pKd (DLG4_2, P78352)","pKd (SCRIB_1, Q14160)",Binder,also measured
4.06,below the threshold,below the threshold,below the threshold,below the threshold,below the threshold,below the threshold,below the threshold,below the threshold,below the threshold,below the threshold,4.01,below the threshold,below the threshold,below the threshold,3.48,below the threshold,4.17,below the threshold,below the threshold,"PYSESDDDWC [CACNA1A, O00555]","pKd (PDZD7_3, Q9H5P4): below the threshold; pKd (LIN7B, Q9HAP6): 3.9; pKd (PCLO, Q9Y6V0): below the threshold; pKd (MAGI2_4, Q86UL8): below the threshold; pKd (DLG2_3, Q15700): 3.7; pKd (GRID2IP_2, A4D2P6): below the threshold; pKd (GRID2IP_1, A4D2P6): below the threshold"
4.05,below the threshold,below the threshold,below the threshold,3.7,below the threshold,below the threshold,below the threshold,below the threshold,below the threshold,below the threshold,below the threshold,3.85,3.79,below the threshold,below the threshold,below the threshold,below the threshold,3.92,below the threshold,"AQRARSPSDV [GPR12, P47775]","pKd (PDZD7_3, Q9H5P4): 3.48; pKd (LIN7B, Q9HAP6): 3.75; pKd (PCLO, Q9Y6V0): below the threshold; pKd (MAGI2_4, Q86UL8): below the threshold; pKd (DLG2_3, Q15700): 3.67; pKd (GRID2IP_2, A4D2P6): below the threshold; pKd (GRID2IP_1, A4D2P6): below the threshold"
4.19,below the threshold,below the threshold,below the threshold,below the threshold,below the threshold,below the threshold,below the threshold,below the threshold,below the threshold,below the threshold,below the threshold,below the threshold,below the threshold,below the threshold,below the threshold,below the threshold,4.24,3.53,3.76,"QSGLYESEEL [MYOT, Q9UBF9]","pKd (PDZD7_3, Q9H5P4): 3.63; pKd (LIN7B, Q9HAP6): 3.66; pKd (PCLO, Q9Y6V0): below the threshold; pKd (MAGI2_4, Q86UL8): below the threshold; pKd (DLG2_3, Q15700): 3.88; pKd (GRID2IP_2, A4D2P6): below the threshold; pKd (GRID2IP_1, A4D2P6): below the threshold"
